{"source": "paper PMC7997005", "about": "“Dynamic interplay between the co-opted Fis1 mitochondrial fission protein and membrane contact site proteins in supporting tombusvirus replication” (PLoS Pathogens, 2021)", "target": "T1, TBSV Flag-p33 replication protein (tomato bushy stunt virus (TBSV), UniProt P15962 1-296)", "T1 construct": "TBSV p33 replication protein; co-expressed and co-purified with Flag-p92pol; source: yeast, expressed from a plasmid, in detergent-solubilized membrane fraction", "T1 sequence": "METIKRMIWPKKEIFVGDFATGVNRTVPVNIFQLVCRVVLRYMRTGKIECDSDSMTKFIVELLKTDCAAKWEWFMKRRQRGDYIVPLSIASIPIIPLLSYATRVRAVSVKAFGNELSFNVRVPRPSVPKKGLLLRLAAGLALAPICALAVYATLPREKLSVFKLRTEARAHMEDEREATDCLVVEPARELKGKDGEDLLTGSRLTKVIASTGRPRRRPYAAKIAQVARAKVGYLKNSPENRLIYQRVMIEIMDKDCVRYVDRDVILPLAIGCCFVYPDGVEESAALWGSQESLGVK", "assay": "co-IP; Flag-affinity purification of Flag-tagged replication proteins (TBSV Flag-p33 + Flag-p92pol or CIRV Flag-p36 + Flag-p95pol) from the detergent-solubilized membrane fraction of yeast; samples cross-linked with formaldehyde; co-purified His6-tagged proteins detected with anti-His antibody; WT, fis1Δ, Fis1p- or Dnm1-ZZ-over-expressing yeast; cycloheximide time course", "conditions": "partners not purified"}
{"binder": "yeast His6-Sac1p (enzyme, S. cerevisiae, UniProt P32368 1-623, looked up, Sac1p PI4P phosphatase, S. cerevisiae; source: yeast, expressed from a plasmid, in detergent-solubilized membrane fraction) MTGPIVYVQNADGIFFKLAEGKGTNDAVIHLANQDQGVRVLGAEEFPVQGEVVKIASLMGFIKLKLNRYAIIANTVEETGRFNGHVFYRVLQHSIVSTKFNSRIDSEEAEYIKLLELHLKNSTFYFSYTYDLTNSLQRNEKVGPAASWKTADERFFWNHYLTEDLRNFAHQDPRIDSFIQPVIYGYAKTVDAVLNATPIVLGLITRRSIFRAGTRYFRRGVDKDGNVGNFNETEQILLAENPESEKIHVFSFLQTRGSVPIYWAEINNLKYKPNLVLGENSLDATKKHFDQQKELYGDNYLVNLVNQKGHELPVKEGYESVVHALNDPKIHYVYFDFHHECRKMQWHRVKLLIDHLEKLGLSNEDFFHKVIDSNGNTVEIVNEQHSVVRTNCMDCLDRTNVVQSVLAQWVLQKEFESADVVATGSTWEDNAPLLTSYQNLWADNADAVSVAYSGTGALKTDFTRTGKRTRLGAFNDFLNSASRYYQNNWTDGPRQDSYDLFLGGFRPHTASIKSPFPDRRPVYIQLIPMIICAALTVLGATIFFPKDRFTSSKNLLYFAGASIVLALSTKFMFKNGIQFVNWPKLVDVGFLVVHQTHDKEQQFKGLKYAQSPKFSKPDPLKRD", "values": [{"measurement": "fold of co-purified Sac1p, Fis1p-over-expressing against WT yeast", "result": "> 2", "unit": "fold"}]}
{"binder": "yeast His6-Fis1p (natural protein, S. cerevisiae, UniProt P40515 1-155, looked up, Fis1p mitochondrial fission 1 protein, S. cerevisiae; also called HisScFis1; source: yeast, expressed from a plasmid, in detergent-solubilized membrane fraction) MTKVDFWPTLKDAYEPLYPQQLEILRQQVVSEGGPTATIQSRFNYAWGLIKSTDVNDERLGVKILTDIYKEAESRRRECLYYLTIGCYKLGEYSMAKRYVDTLFEHERNNKQVGALKSMVEDKIQKETLKGVVVAGGVLAGAVAVASFFLRNKRR", "values": [{"measurement": "fold reduction of co-purified Fis1p when Dnm1p is co-expressed, against yeast without Dnm1p over-expression", "result": "~8", "unit": "fold"}]}
{"binder": "yeast His6-Osh6p (natural protein, S. cerevisiae, UniProt Q02201 1-448, looked up, source: yeast, expressed from a plasmid, in detergent-solubilized membrane fraction) MGSKKLTVGSDSHRLSKSSFSSNKSSHSATKDQPIDTDDIDEDDESGHNIILNIISQLRPGCDLTRITLPTFILEKKSMLERVTNQLQFPEFLLQAHSEKDPLKRFLYVMKWYLAGWHIAPKAVKKPLNPVLGEYFTAYWDLPNKQQAYYISEQTSHHPPECAYFYMIPESSIRVDGVVIPKSRFLGNSSAAMMDGSTVLQFLDIKDGNGKPEKYVLTQPNVYVRGILFGKMRIELGDHMIIKSPNFQADIEFKTKGYVFGTYDAIEGTVKDYDGNAYYEISGKWNDVMYLKDLKQPRSSPKVFLDTHKESPLRPKVRPLSEQGEYESRKLWKKVTDALAVRNHPVATEEKFQIEDHQRQLAKKRIEDGVEFHPKLFRRSKPGEDLDYCIYKNIPVDEDPEKQIRSILQIAPILPGQQFTDKFFIPAFEKIKSQKKMIENEKQNPAKQ", "values": [{"measurement": "fold of co-purified Osh6p, Fis1p-over-expressing against WT yeast", "result": 3.5, "unit": "fold more"}, {"measurement": "fold of co-purified Osh6p, fis1Δ against WT yeast", "result": "~4", "unit": "fold less"}]}
